In article PMC2120956:

Tests used:
[1] = molecular target: embryonic breast muscle myosin isolated from d15 chick embryos (chicken) (UniProt P02565)
[2] = molecular target: embryonic myosin isolated from primary culture myotubes (chicken) (UniProt P02565)

Question: Which results are given for “F-actin (from UniProt P68139 1-377) (natural protein)”?
Answer: actin filament velocity, in vitro motility assay [1]: 3.8 um/s; actin filament velocity, in vitro motility assay [2]: 3.1 um/s
